Experiments:
GST-PsAGL9 [1] = biological target: T1, GST-PsAGL9 (Paeonia suffruticosa, UniProt V9I0Q3 1-243); test: EMSA; 10x and 20x cold probe weakened signal; Chemiluminescent EMSA Kit (Beyotime); buffer, salt, pH and temperature not stated; settings: protein: recombinant; tags: GST (pGEX-4T-1); label: biotin; blunt
GST-PsAGL9 [2] = biological target: T1, GST-PsAGL9; test: competition; 10x and 20x cold mutant probe did not affect signal; Chemiluminescent EMSA Kit (Beyotime); buffer, salt, pH and temperature not stated; settings: protein: recombinant; tags: GST (pGEX-4T-1)
GST-PsAGL9 [3] = biological target: T1, GST-PsAGL9; test: EMSA; Chemiluminescent EMSA Kit (Beyotime); buffer, salt, pH and temperature not stated; settings: protein: recombinant; tags: GST (pGEX-4T-1); label: biotin

T1 sequence (V9I0Q3 entry or part of it): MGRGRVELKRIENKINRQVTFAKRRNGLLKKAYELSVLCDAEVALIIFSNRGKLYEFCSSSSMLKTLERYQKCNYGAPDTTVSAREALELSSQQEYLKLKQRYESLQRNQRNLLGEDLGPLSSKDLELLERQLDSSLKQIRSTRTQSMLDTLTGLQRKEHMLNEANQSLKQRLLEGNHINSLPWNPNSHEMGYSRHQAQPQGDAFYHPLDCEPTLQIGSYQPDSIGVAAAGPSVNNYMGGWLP

B1: PsCYCD CArG probe (dsDNA)
DNA 1: TTTGGCCAATTTTGGTTAA
DNA 2: TTAACCAAAATTGGCCAAA
binding result (GST-PsAGL9 [1]): binds

B2: PsCYCD mutant probe (cold-mP) (dsDNA)
DNA 1: TTTGGCCGACCGGGGTTAA
DNA 2: TTAACCCCGGTCGGCCAAA
binding result (GST-PsAGL9 [2]): no binding

B3: PsEBB3 CArG probe (dsDNA)
DNA 1: ATGTCCATAATTTAGGCCTA
DNA 2: TAGGCCTAAATTATGGACAT
binding result (GST-PsAGL9 [3]): binds
